# Measurements taken from patent US20040214331A1.
# Assays:
# [1] = biological target: synthetic HPV16 virus-like particles (L1 and L2) purified from CV-1 cells infected with pLC201VV (human papillomavirus type 16) (UniProt P03101); assay: ELISA, denatured particles coated in carbonate buffer pH 9.6
# [2] = biological target: synthetic HPV16 virus-like particles (L1 and L2) purified from CV-1 cells infected with pLC201VV (human papillomavirus type 16) (UniProt P03101); assay: ELISA, native VLPs coated in PBS pH 7.5
# UniProt P03101, sequence (P03101 whole entry, chain 1 of 2): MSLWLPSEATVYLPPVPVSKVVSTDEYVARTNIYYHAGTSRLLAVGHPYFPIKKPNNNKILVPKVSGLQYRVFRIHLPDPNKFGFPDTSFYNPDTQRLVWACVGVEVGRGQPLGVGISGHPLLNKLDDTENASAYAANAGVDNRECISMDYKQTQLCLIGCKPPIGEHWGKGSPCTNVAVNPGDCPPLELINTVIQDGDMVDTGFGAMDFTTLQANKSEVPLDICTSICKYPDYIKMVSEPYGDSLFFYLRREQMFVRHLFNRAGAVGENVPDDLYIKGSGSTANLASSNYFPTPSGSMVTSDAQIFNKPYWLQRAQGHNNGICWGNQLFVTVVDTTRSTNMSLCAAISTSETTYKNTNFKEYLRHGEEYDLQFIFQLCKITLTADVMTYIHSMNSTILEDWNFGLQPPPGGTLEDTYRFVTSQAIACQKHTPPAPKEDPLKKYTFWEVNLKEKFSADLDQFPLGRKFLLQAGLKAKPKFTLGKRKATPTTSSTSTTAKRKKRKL
# UniProt P03101, sequence (P03107 whole entry, chain 2 of 2, further chain): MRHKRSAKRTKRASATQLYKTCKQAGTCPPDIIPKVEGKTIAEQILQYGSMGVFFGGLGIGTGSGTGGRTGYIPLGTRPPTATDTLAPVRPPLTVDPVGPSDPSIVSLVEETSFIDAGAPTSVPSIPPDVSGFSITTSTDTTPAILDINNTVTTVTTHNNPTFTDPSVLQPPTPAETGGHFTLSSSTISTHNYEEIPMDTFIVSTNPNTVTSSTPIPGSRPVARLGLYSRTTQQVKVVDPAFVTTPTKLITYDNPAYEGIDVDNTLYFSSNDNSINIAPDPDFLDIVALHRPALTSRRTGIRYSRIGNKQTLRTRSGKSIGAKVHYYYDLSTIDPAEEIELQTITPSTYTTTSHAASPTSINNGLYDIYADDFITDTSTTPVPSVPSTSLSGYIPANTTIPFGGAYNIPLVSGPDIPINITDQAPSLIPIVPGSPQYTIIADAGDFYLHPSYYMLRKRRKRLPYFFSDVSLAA
substance,measurement,setting,value
anti-HPV16 L1 monoclonal antibody Camvir 1,OD,[1],0.107 OD
same,OD,[2],0.064 OD
